Among the data in JP2018087218A (dated 2018) are Kd values, retold here.

For this assay, the target named is T1, ヒトCD38 (SPRで注入されたCD38) (human, UniProt P28907 43-300).
T1 sequence: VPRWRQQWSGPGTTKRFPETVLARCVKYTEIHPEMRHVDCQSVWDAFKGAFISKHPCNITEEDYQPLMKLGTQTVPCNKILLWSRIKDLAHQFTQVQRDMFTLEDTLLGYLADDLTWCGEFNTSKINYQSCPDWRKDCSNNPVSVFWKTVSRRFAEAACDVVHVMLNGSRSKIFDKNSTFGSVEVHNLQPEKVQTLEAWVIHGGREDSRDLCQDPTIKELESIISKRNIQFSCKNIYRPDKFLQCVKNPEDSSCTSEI
Put plainly: SPR (Biacore), antibody captured on protein A, CD38 injected.

The term Kd denotes the constant that tells how readily two partners part at equilibrium.

B1: X02.1 (antibody, human IgG4 S228P, lambda, V domains shown)
VH: QLQLQESGPGLVKPSETLSLTCTVSGGSISSSSYYWSWIRQHPGKGLEWIGYIYYSGSTNYNPSLKSRVTISVDTLKNQISLRLTSVTAADTAVYYCARVGGAGGWPMDVWGQGTTVTVSS
VL: QAVLTQPASLSASPGESARLTCTLPSDINVRYYNIYWYQQKPGSPPRYLLYYYSDSHKGQGSGVPSRFSGSKDVSTNSGILLISGLQSEDEADYYCMTWSSNGSGVFGGGTQLTVLG
notes: X02.1 has no IFN fusion; also called 親抗体X02.1; A02.1 (X355/02-HC-L0-IFN-アルファ(A145D)IgG4) の非融合抗体
B1 gave a Kd of 0.378 to 27 nM.
